Measured values taken from US20050118601A1, “Enhancer sequence of the 5-aminolevulinic acid synthase gene” (priority 2002, published 2005).

Columns and labels:
CAR/RXRalpha heterodimer = CAR/RXRalpha heterodimer (Homo sapiens, UniProt Q14994;P19793 Q14994:1-352,P19793:1-462); test: EMSA; conditions: tags: TNT reticulocyte lysate; label: radiolabel
From the text: (§1) FIG. 19 depicts the results of an electrophoretic mobility shift assay, assaying the ability of human PXR and human CAR to bind to the hA174 and hA240 elements. Binding of these nuclear receptors happens in a heterodimeric state with the human 9-cis retinoic acid receptor RXRα. From expression plasmids encoding human RXRα, […] or CAR, receptor protein was made in vitro using the TNT reticulocyte lysate coupled transcription/translation system (Promega Corp.).
(§2) Lanes 1-4: Wildtype hA174 was incubated with no receptor (mock transcription/translation) or with RXRα, PXR or CAR alone. No complex is observed using single receptors. Lanes 5 and 7: Wild-type hA174 was incubated with RXRα and PXR or RXRα and CAR, upon which complex formation between radiolabeled probe and protein is observed. Lanes 6 and 8: Same conditions as in lanes 5 and 7, but instead of wild-type hA174, a radiolabeled probe was used where the half-site 2 was mutated. No complex is formed anymore.

PXR/RXRalpha heterodimer = PXR/RXRalpha heterodimer (Homo sapiens, UniProt O75469;P19793 O75469:1-434,P19793:1-462); test: EMSA; conditions: tags: TNT reticulocyte lysate; label: radiolabel
From the text: as §1, §2

PXR = molecular target: T1, PXR (Homo sapiens, UniProt O75469 O75469:1-434); test: EMSA; PXR alone; conditions: tags: TNT reticulocyte lysate; label: radiolabel
T1 sequence: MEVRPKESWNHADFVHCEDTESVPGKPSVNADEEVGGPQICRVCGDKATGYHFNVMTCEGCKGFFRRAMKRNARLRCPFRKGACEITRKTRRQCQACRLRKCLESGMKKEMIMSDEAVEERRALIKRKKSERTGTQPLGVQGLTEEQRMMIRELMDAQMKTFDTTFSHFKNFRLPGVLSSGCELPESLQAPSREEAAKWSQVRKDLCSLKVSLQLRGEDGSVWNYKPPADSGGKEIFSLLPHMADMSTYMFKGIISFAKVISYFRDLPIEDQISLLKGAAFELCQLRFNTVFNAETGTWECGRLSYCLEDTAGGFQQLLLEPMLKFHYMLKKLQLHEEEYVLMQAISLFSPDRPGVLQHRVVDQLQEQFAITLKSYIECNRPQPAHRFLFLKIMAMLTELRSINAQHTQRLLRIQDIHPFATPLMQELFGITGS
From the text: as §1, §2

CAR = molecular target: T2, CAR (Homo sapiens, UniProt Q14994 Q14994:1-352); test: EMSA; CAR alone; conditions: tags: TNT reticulocyte lysate; label: radiolabel
T2 sequence: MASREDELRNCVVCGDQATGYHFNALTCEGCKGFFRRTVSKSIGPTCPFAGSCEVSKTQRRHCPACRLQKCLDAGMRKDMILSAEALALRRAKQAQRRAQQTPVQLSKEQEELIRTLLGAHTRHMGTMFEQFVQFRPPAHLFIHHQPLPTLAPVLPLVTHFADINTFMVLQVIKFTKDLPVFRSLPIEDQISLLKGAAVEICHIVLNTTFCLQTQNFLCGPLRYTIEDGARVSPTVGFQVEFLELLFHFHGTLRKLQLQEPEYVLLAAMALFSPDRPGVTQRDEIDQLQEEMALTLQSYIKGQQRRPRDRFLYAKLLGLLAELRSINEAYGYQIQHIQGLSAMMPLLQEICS
From the text: as §1, §2

RXRalpha = RXRalpha (Homo sapiens, UniProt P19793 P19793:1-462); test: EMSA; RXRalpha alone; conditions: tags: TNT reticulocyte lysate; label: radiolabel
From the text: as §1, §2

CXR/RXR heterodimer [1] = molecular target: T3, CXR/RXR heterodimer (Gallus gallus, UniProt A0A8V1AGS4;P28701 A0A8V1AGS4:1-375,P28701:1-467); test: EMSA; supershifted by anti-RXR; conditions: tags: TNT T7 Quick Coupled; pSG5; label: 32P
Method: (§3) Radiolabelled ADRES wild type (lanes 1-5) and mutant (lanes 6-7) sequences were incubated with in vitro transcribed/translated CXR (lanes 3-7), chicken RXR (lanes 2 and 4-7) and anti-RXR antibody (lane 5 and 7), as indicated. Arrows depict the unbound probe, the shifted CXR-RXR-probe complex, and the supershifted CXR-RXR-probe-anti-RXR antibody complex;
(§4) Chicken CXR and RXR proteins were expressed using the TNT T7 Quick Coupled Translation System (Promega) according to the manufacturers protocol. Probes were labeled by Klenow reaction in the presence of radiolabeled [α-³²P]ATP and purified over a Biospin 6 chromatography column. A volume of labeled oligonucleotide corresponding to 100,000 cpm was used for each reaction in 10 mM Tris-HCL (8.0)/40 mM KCl/0.05% Nonidet P40′/6% glycerol (vol./vol.)/1 mM DTT containing 0.2 μg of poly(dI-dC) and 2.5 μl in-vitro synthesized proteins as described previously (2, 7). To test for supershifts, 0.5 μl monoclonal anti-mouse-RXR rabbit antibody (kindly provided by P. Chambon, Université Louis Pasteur, Illkirch, France) were added to the reaction mix. This antibody has been previously tested for interactions with chicken RXR in Western blots (data not shown). The reaction mix was incubated for 20 min at room temperature and electrophoresed on a 6% polyacrylamide gel in 0.5× Tris/borate/EDTA buffer followed by autoradiography.

RXR [2] = molecular target: T4, RXR (Gallus gallus, UniProt P28701 P28701:1-467); test: EMSA; RXR alone; conditions: tags: TNT T7 Quick Coupled; pSG5; label: 32P
T4 sequence: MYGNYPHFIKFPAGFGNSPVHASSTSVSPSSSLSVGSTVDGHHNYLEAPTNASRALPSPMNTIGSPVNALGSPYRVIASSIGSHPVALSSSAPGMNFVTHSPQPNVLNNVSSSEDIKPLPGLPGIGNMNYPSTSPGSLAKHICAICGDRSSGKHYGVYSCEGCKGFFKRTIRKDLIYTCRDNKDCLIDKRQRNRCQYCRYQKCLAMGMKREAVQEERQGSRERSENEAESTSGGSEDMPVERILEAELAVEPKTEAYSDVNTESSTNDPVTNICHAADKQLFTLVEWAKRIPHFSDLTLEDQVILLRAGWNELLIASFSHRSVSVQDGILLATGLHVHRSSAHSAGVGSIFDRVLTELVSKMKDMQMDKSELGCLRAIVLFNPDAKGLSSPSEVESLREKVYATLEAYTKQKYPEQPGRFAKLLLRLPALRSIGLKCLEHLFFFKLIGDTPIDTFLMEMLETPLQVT
Method: as §3, §4

RXR [3] = molecular target: T4, RXR; test: EMSA; RXR alone; conditions: tags: TNT T7 Quick Coupled; pSG5; label: 32P; remark: listed apart in the source
Method: as §3, with “and mutant.” for “and mutant”, “incubated With” for “incubated with”, “antibody (Lane” for “antibody (lane”
as §4

CXR/RXR heterodimer [4] = molecular target: T3, CXR/RXR heterodimer; test: EMSA; supershifted by anti-RXR; 40 mM KCl, pH 8.0, poly(dI-dC), room temperature; conditions: tags: TNT T7 Quick Coupled; pSG5; label: 32P
Method: as §3, with “and mutant.” for “and mutant”, “incubated With” for “incubated with”, “antibody (Lane” for “antibody (lane”
as §4

CXR/RXR heterodimer [5] = molecular target: T3, CXR/RXR heterodimer; test: EMSA; binding virtually eliminated; conditions: tags: TNT T7 Quick Coupled; pSG5; label: 32P
Method: as §3, with “and mutant.” for “and mutant”, “incubated With” for “incubated with”, “antibody (Lane” for “antibody (lane”
as §4

T3 sequence (chain, as listed by the source): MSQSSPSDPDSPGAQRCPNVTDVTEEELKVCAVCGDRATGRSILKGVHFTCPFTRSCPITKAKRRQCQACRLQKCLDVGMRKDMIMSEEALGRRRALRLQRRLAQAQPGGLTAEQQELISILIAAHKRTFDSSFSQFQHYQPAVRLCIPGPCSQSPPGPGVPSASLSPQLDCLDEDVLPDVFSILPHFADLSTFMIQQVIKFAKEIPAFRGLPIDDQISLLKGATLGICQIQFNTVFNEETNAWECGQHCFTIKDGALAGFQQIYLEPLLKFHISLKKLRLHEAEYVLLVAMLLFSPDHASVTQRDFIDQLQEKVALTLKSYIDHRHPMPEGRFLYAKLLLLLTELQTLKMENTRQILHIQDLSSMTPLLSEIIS

B1: hA174 (dsDNA)
DNA 1: GCGCAAAGTCAACACAAGCCTCTCCACCGTGTGTCCATGTTTATGTGTATGCGCTGTGCCCCGTCATGCCACCTGGACGCAGGGACTCCAGTGACCTCTCCTTGCACAAGCCTCTGCTGGTTTGGGAAAGATTGGCATGACATCAGCCAAGCTCTGGCCTTGCCTTTTTTCCCT
DNA 2: AGGGAAAAAAGGCAAGGCCAGAGCTTGGCTGATGTCATGCCAATCTTTCCCAAACCAGCAGAGGCTTGTGCAAGGAGAGGTCACTGGAGTCCCTGCGTCCAGGTGGCATGACGGGGCACAGCGCATACACATAAACATGGACACACGGTGGAGAGGCTTGTGTTGACTTTGCGC
Q: What does the source list for B1?
A: binding result (CAR/RXRalpha heterodimer): binds; binding result (PXR/RXRalpha heterodimer): binds; binding result (PXR): no binding; binding result (CAR): no binding; binding result (RXRalpha): no binding

B2: 167 bp ADRES (dsDNA)
DNA 1: CTGCCTCCAGTCCTGAACTTTCTCTGCTGGGATGAGCAGAGTTCACGCTCGGCTGAACTCGTGACTGTGTCAACAGGGGGCATGAAGATCAGCACCAGGCAAAGGTGAGCGGAGTGCACAAGAATGAGGCAGAGACCTTTGGGACAAAGAGTTCCCCACCCGTGGGG
DNA 2: CCCCACGGGTGGGGAACTCTTTGTCCCAAAGGTCTCTGCCTCATTCTTGTGCACTCCGCTCACCTTTGCCTGGTGCTGATCTTCATGCCCCCTGTTGACACAGTCACGAGTTCAGCCGAGCGTGAACTCTGCTCATCCCAGCAGAGAAAGTTCAGGACTGGAGGCAG
Q: Does B2 bind (CXR/RXR heterodimer [1])?
A: Result: binds

Q: Does B2 bind (RXR [2])?
A: Result: no binding

B3: 176 bp ADRES (dsDNA)
DNA 1: GGGCTCCATCGGCCTCTTCAGGTTATTGCTATGTTCAACTCGTGTGACCTTCCTCCCTGTTTTCAAGGTTCTGATAACAAACTTCTAGGACAGCCTGGTGACCTTTGGCTCAGCTTCCTCTTTAAACTCCGGTGGCTTTTGCTTCATTGCCTAGTTGTTACCCAGCAGTAAAGATC
DNA 2: GATCTTTACTGCTGGGTAACAACTAGGCAATGAAGCAAAAGCCACCGGAGTTTAAAGAGGAAGCTGAGCCAAAGGTCACCAGGCTGTCCTAGAAGTTTGTTATCAGAACCTTGAAAACAGGGAGGAAGGTCACACGAGTTGAACATAGCAATAACCTGAAGAGGCCGATGGAGCCC
Q: Does B3 bind (RXR [3])?
A: Result: no binding

Q: Does B3 bind (CXR/RXR heterodimer [4])?
A: Result: binds

B4: 176 bp ADRES DR4-1/DR5 double mutant (dsDNA)
DNA 1: GGGCTCCATCGGCCTCTTCAGGTTATTGCTATGTTGGTATCGTGTCGAGTTCCTCCCTGTTTTCAAGGTTCTGATAACAAACTTCTAGGACAGCCTGGCTGCAGTTGGCGAATTCTCCTCTTTAAACTCCGGTGGCTTTTGCTTCATTGCCTAGTTGTTACCCAGCAGTAAAGATC
DNA 2: GATCTTTACTGCTGGGTAACAACTAGGCAATGAAGCAAAAGCCACCGGAGTTTAAAGAGGAGAATTCGCCAACTGCAGCCAGGCTGTCCTAGAAGTTTGTTATCAGAACCTTGAAAACAGGGAGGAACTCGACACGATACCAACATAGCAATAACCTGAAGAGGCCGATGGAGCCC
Q: Does B4 bind (CXR/RXR heterodimer [5])?
A: Result: no binding
